In publication PMC9830665:

How the values were obtained:
[1] = molecular target: uridine-specific nidoviral endoribonuclease (NendoU) protein from SARS-CoV-2 (SARS-CoV-2); experiment: dynamic light scattering
[2] = molecular target: uridine-specific nidoviral endoribonuclease (NendoU) protein from SARS-CoV-2 (SARS-CoV-2); experiment: SEC

For “uridine-specific nidoviral endoribonuclease (NendoU) protein from SARS-CoV-2 (enzyme)”, the stoichiometry N [1] was 6 and the stoichiometry N [2] was 6.
